These results are taken from publication PMC11260479, “YY1 is involved in homologous recombination inhibition at guanine quadruplex sites in human cells”.

The target in the data set is RAD51 (UniProt Q06609 1-339). The experiment in a line: EMSA; 2 mM ATP, 5 mM CaCl2; EMSA, 10 nM DNA. RAD51: 20 mM Tris-HCl pH 8.0, 30 mM NaCl, 1 mM DTT, 2 mM ATP, 5 mM CaCl2, 0.2% Tween 20, 37 C 15 min. BG4: 20 mM Tris-HCl pH 8.0, 30 mM KCl, 1. The conditions noted are these: protein: commercial; chain copies: 10; label: none (SYBR Gold stain); single strand. Background: A gel shift assay detects complexes by their altered migration in electrophoresis.
Chain of RAD51 (Q06609 whole entry): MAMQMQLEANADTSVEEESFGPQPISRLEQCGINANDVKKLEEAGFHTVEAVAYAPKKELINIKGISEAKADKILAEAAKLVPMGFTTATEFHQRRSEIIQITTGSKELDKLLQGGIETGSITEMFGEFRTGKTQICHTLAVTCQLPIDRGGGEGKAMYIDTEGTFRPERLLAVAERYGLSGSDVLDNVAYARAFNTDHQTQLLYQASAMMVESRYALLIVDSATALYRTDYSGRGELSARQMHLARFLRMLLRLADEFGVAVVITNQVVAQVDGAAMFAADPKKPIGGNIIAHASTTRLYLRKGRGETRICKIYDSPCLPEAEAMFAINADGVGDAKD

B1: ss-DNA (ssDNA)
DNA: ATGGTGTGTGTAGGTTAATGTGAGGAGGAGAGGTGAAGAAGGAGGAGAGAAGAAGGAGGC
For B1, the binding result is “binds”.
